Data from article PMC4039189.

Target: C-terminal TAP-tagged PB1 (influenza A virus, strain not stated)
Experiment: pull-down

B1: DDX21, plasmid-expressed (pcDNA3 plasmid expressing DDX21) (natural protein)
chain: MPGKLRSDAGLESDTAMKKGETLRKQTEEKEKKEKPKSDKTEEIAEEEETVFPKAKQVKKKAEPSEVDMNSPKSKKAKKKEEPSQNDISPKTKSLRKKKEPIEKKVVSSKTKKVTKNEEPSEEEIDAPKPKKMKKEKEMNGETREKSPKLKNGFPHPEPDCNPSEAASEESNSEIEQEIPVEQKEGAFSNFPISEETIKLLKGRGVTFLFPIQAKTFHHVYSGKDLIAQARTGTGKTFSFAIPLIEKLHGELQDRKRGRAPQVLVLAPTRELANQVSKDFSDITKKLSVACFYGGTPYGGQFERMRNGIDILVGTPGRIKDHIQNGKLDLTKLKHVVLDEVDQMLDMGFADQVEEILSVAYKKDSEDNPQTLLFSATCPHWVFNVAKKYMKSTYEQVDLIGKKTQKTAITVEHLAIKCHWTQRAAVIGDVIRVYSGHQGRTIIFCETKKEAQELSQNSAIKQDAQSLHGDIPQKQREITLKGFRNGSFGVLVATNVAARGLDIPEVDLVIQSSPPKDVESYIHRSGRTGRAGRTGVCICFYQHKEEYQLVQVEQKAGIKFKRIGVPSATEIIKASSKDAIRLLDSVPPTAISHFKQSAEKLIEEKGAVEALAAALAHISGATSVDQRSLINSNVGFVTMILQCSIEMPNISYAWKELKEQLGEEIDSKVKGMVFLKGKLGVCFDVPTASVTEIQEKWHDSRRWQLSVATEQPELEGPREGYGGFRGQREGSRGFRGQRDGNRRFRGQREGSRGPRGQRSGGGNKSNRSQNKGQKRSFSKAFGQ
B1 was tested, and the percent reduction of TAP-selected PA by DDX21 (1 μg plasmid) was 75% and the percent reduction of TAP-selected PB2 by DDX21 (1 μg plasmid) was 65%.
